Measurements published in PMC7376575 (The Biochemical journal, 2020).
Changes are numbered by the printed parent chain.

T1: biotinylated catalytic domain of MMP-1 (UniProt P03956 106-261, biotin on Lys residues)
T1 sequence: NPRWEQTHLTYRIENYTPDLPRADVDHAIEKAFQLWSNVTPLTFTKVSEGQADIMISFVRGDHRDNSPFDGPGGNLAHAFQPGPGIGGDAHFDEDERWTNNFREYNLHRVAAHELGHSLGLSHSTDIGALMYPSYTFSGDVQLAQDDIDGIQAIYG

T2: catalytic domain of MMP-1 (UniProt P03956 106-261)
T2 sequence: T1 sequence

B1: yeast-displayed N-TIMP2WT (domain or fragment)
chain: CSCSPVHPQQAFCNADVVIRAKAVSEKEVDSGNDIYGNPIKRIQYEIKQIKMFKGPEKDIEFIYTAPSSAVCGVSLDVGGKKEYLIAGKAEGDGKMHITLCDFIVPWDTLSTTQKKSLNHRYQMGCE
B2: N-TIMP2 V71R (domain or fragment)
chain: B1 chain with V71R
modifications: native disulfides
B3: N-TIMP2 S68M (domain or fragment)
chain: B1 chain with S68M
modifications: native disulfides
B4: N-TIMP2 S68E (domain or fragment)
chain: B1 chain with S68E
modifications: native disulfides
B5: N-TIMP2 V71W (domain or fragment)
chain: B1 chain with V71W
modifications: native disulfides
B6: N-TIMP2 T99G (domain or fragment)
chain: B1 chain with T99G
modifications: native disulfides
B7: N-TIMP2 T99M (domain or fragment)
chain: B1 chain with T99M
modifications: native disulfides
B8: N-TIMP2 H97R (domain or fragment)
chain: B1 chain with H97R
modifications: native disulfides
B9: N-TIMP2 T99Q (domain or fragment)
chain: B1 chain with T99Q
modifications: native disulfides
B10: N-terminal domain of the tissue inhibitor of metalloproteinase 2, wild type (domain or fragment)
chain: B1 chain

target: biotinylated catalytic domain of MMP-14 (UniProt P50281 112-292, biotin on Lys residues (EZ-Link sulfo-NHS-LC-LC-biotin)); assay: flow cytometry on cells

Kd | Binder
48.2 nM | B1

target: biotinylated catalytic domain of MMP-3 (UniProt P08254 100-272, biotin on Lys residues); assay: flow cytometry on cells
Sequence (P08254 100-272): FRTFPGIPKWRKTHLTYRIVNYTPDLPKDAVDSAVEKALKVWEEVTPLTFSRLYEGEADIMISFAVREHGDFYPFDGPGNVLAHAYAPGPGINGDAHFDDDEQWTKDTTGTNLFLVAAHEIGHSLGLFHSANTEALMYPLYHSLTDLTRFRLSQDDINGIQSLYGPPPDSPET

Kd | Binder
36.2 nM | B1

target: T1, biotinylated catalytic domain of MMP-1; assay: flow cytometry on cells

Kd | Binder
3.22 nM | B1

target: T2, catalytic domain of MMP-1; assay: enzyme inhibition assay

Ki | Binder
5.59 nM | B2
0.181 nM | B3
0.249 nM | B4
2.99 nM | B5
0.08 nM | B6
0.085 nM | B7
0.031 nM | B8
0.099 nM | B9

target: catalytic domain of MMP-14 (UniProt P50281 112-292); assay: enzyme inhibition assay

Ki | Binder
2.6 nM | B3
1.42 nM | B4
34.3 nM | B5
0.534 nM | B6
2.05 nM | B7
0.125 nM | B8
3.92 nM | B9

target: catalytic domain of MMP-3 (UniProt P08254 100-272); assay: enzyme inhibition assay
Sequence (P08254 100-272): as above

Ki | Binder
86.2 nM | B2
3.29 nM | B3
4.71 nM | B4
26.4 nM | B5
4.24 nM | B6
1.34 nM | B10
8.29 nM | B7
1.31 nM | B8
3.72 nM | B9
